According to patent publication US20260250378A1:
Values belong to the substance of their own block, whether it stands above or below them.

Experiments:
[1] = target: CNX-his antigen (Genscript) (human) (UniProt P27824); test: ELISA with serial dilutions of the antibody on coated His-tagged human CNX
[2] = target: CNX-mcherry fluorescent protein expressed in Huh7 cells; test: immunofluorescence, Huh7 CNX-mcherry cells minus plain Huh7 cells, Alexa-coupled secondary
[3] = target: Recombinant human CANX protein fused with the Fc region of human IgG1 at the C-terminus (HuCANX_hFc) (human) (UniProt P27824); test: ELISA, IgG1 coated 2 ug/ml, biotinylated antigen titrated (EC50 is of the antigen), streptavidin-HRP; curve is flat, value lies beyond the range shown
[4] = target: CNX-mcherry fluorescent protein expressed in Huh7 cells; test: immunofluorescence, Huh7 CNX-mcherry cells minus plain Huh7 cells, anti-human Alexa 647

Sequence of CNX-mcherry fluorescent protein expressed in Huh7 cells (P27824 21-592): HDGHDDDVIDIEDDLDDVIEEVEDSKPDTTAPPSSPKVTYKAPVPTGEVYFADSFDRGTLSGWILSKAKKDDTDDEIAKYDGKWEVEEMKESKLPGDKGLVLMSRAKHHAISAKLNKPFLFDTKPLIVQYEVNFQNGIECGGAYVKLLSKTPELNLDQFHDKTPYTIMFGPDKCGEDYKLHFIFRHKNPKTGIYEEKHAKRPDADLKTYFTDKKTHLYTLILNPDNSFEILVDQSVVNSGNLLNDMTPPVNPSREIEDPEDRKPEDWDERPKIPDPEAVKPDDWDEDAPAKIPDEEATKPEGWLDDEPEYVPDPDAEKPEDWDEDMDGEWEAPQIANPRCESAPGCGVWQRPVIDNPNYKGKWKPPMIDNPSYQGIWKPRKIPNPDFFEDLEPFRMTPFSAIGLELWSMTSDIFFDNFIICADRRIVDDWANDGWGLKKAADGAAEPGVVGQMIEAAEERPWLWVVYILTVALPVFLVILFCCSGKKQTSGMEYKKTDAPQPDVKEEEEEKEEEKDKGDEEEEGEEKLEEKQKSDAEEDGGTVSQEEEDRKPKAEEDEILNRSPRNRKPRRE
Sequence of Recombinant human CANX protein fused with the Fc region of human IgG1 at the C-terminus (HuCANX_hFc) (human) (P27824 21-481 limits assumed): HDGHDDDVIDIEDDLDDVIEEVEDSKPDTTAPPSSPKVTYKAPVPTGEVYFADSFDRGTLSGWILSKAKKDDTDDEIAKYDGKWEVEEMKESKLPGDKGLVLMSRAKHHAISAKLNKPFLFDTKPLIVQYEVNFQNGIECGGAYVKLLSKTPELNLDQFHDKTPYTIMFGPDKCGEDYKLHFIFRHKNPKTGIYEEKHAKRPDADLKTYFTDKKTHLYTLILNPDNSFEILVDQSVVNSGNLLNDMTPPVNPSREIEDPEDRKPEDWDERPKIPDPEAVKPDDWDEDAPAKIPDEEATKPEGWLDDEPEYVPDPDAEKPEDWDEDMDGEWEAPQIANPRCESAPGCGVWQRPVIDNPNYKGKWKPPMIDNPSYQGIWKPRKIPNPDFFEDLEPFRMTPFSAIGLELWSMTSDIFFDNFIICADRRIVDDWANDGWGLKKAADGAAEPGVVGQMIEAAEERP
Sequence of CNX-his antigen (Genscript) (human) (P27824 21-481 limits assumed): as above

EC50 (read off the curve) [1]: 0.2 µg/mL
Substance: CNX ab10286 (Abcam) (antibody)

Intensity (CNX+ cells - CNX -ve) [2]: 3630
Substance: CNX antibody ab22595 (Abcam)

EC50 [3]: 147 nM
Substance: Neg Control (antibody)

Intensity (CNX+ cells - CNX -ve) [4]: 107
Substance: negative control human IgG (antibody)
